T1: human CD14 with amino acids 39, 40, 41, 43 and 44 substituted with alanine (mut6) (human, UniProt P08571 20-345)
T1 construct: whole, on cells; The positions count on the mature protein (add 19 for the precursor entry); also called CD14mut6; CHO-Mut6
T1 sequence (looked up): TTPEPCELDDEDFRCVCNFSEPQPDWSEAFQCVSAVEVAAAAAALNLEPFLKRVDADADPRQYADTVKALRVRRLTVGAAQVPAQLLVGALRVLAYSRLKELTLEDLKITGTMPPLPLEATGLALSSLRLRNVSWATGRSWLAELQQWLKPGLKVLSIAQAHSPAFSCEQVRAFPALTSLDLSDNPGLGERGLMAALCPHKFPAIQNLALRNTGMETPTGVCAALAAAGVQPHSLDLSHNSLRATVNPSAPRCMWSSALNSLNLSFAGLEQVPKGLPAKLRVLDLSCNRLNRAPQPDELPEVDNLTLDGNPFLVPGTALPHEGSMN

B1: biotinylated recombinant HBsAg particles, which only contain S protein (b-rHBsAg) (other)
chain: MENITSGFLGPLLVLQAGFFLLTRILTIPQSLDSWWTSLNFLGGSPVCLGQNSQSPTSNHSPTSCPPICPGYRWMCLRRFIIFLFILLLCLIFLLVLLDYQGMLPVCPLIPGSTTTSTGPCKTCTTPAQGNSMFPSCCCTKPTDGNCTCIPIPSSWAFAKYLWEWASVRFSWLSLLVPFVQWFVGLSPTVWLSAIWMMWYWGPSLYSIVSPFIPLLPIFFCLWVYI
modifications: biotinylated on lysine residues (the three lysine residues which can become biotinylated all lie in the major antigenic region of the S protein; positions 122 and 141 are named)
notes: domain: S protein; Multimeric virus-like particle with lipid; also called biotinylated rHBsAg

Legend:
human CD14 (human) = human CD14 (human) (UniProt P08571); experiment: flow cytometry, hCD14-CHO cells, FITC-labelled mAb
mouse CD14 (mouse) = mouse CD14 (mouse) (UniProt P10810); experiment: flow cytometry, mCD14-CHO cells, FITC-labelled mAb
mouse CD14 (mouse), sequence (P10810 16-336): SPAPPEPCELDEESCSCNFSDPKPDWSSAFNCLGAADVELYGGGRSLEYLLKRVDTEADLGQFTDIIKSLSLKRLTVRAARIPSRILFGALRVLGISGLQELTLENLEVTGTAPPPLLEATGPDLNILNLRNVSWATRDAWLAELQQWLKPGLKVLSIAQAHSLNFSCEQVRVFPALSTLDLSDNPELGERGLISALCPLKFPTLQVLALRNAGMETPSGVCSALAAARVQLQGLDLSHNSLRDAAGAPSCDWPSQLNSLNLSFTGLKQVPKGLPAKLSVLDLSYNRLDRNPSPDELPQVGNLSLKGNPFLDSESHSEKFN

[1] = molecular target: B1; experiment: flow cytometry competition; b-rHBsAg pre-incubated with recombinant sCD14 in 2% HS-HBSS, then binding to monocytes of PBMC
[2] = molecular target: T1, human CD14 with amino acids 39, 40, 41, …; experiment: flow cytometry on CHO cells transfected with mut6, 2% HS-HBSS, Strep-PE

Molecule | Median Fluorescence (human CD14 (human)) | Median Fluorescence (mouse CD14 (mouse)) | IC50 [1] [µg/mL] | binding result [2]
Mouse anti-human CD14 (clone M(P9)) (antibody) | 502 | 0 | – | –
Mouse anti-human CD14 (clone My4) (antibody) | 291 | 0.12 | – | –
Rat anti-mouse CD14-FITC (clone rmC5-3, IgG1) (antibody) | 0 | 24 | – | –
recombinant soluble CD14 (receptor, also called sCD14; recombinant sCD14) TTPEPCELDDEDFRCVCNFSEPQPDWSEAFQCVSAVEVEIHAGGLNLEPFLKRVDADADPRQYADTVKALRVRRLTVGAAQVPAQLLVGALRVLAYSRLKELTLEDLKITGTMPPLPLEATGLALSSLRLRNVSWATGRSWLAELQQWLKPGLKVLSIAQAHSPAFSCEQVRAFPALTSLDLSDNPGLGERGLMAALCPHKFPAIQNLALRNTGMETPTGVCAALAAAGVQPHSLDLSHNSLRATVNPSAPRCMWSSALNSLNLSFAGLEQVPKGLPAKLRVLDLSCNRLNRAPQPDELPEVDNLTLDGNPFLVPGTALPHEGSMNSGVVPACARSTLSVGVSGTLVL | – | – | > 2.5 | –
B1 | – | – | – | no binding
